{
  "source": "paper PMC11077084",
  "about": "“Biochemical characterization of the meiosis-essential yet evolutionarily divergent topoisomerase VIB-like protein MTOPVIB from Arabidopsis thaliana” (Nucleic Acids Research, 2024)",
  "key": {"[1]": {"molecular_target": "T1, N. equitans Topo VI complex (Topo VIA•Topo VIB) (Nanoarchaeum equitans, UniProt Q74N98)", "T1 construct": "gene top6B; codon-optimized Topo VIA and VIB co-expressed from pETDuet in E. coli Rosetta (DE3) pLysS; heat step, Ni-NTA; A2B2 heterotetramer; with Type 2 DNA topoisomerase 6 subunit A", "T1 sequence (Q74N98 1-567)": "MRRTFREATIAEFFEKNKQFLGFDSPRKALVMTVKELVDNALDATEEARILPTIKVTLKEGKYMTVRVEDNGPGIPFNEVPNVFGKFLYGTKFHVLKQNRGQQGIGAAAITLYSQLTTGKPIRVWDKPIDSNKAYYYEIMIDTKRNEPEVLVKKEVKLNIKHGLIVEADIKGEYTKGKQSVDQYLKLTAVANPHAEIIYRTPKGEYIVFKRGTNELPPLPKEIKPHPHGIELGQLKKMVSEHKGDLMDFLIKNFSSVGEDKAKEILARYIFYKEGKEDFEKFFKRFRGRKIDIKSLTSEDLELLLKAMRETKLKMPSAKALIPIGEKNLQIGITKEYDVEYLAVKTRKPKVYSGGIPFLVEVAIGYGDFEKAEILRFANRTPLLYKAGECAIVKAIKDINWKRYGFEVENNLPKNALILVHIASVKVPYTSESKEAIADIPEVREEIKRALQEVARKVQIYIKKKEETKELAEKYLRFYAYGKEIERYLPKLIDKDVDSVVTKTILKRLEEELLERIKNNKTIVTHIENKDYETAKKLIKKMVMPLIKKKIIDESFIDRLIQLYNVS", "T1 sequence (Q74M54 1-359 partner)": "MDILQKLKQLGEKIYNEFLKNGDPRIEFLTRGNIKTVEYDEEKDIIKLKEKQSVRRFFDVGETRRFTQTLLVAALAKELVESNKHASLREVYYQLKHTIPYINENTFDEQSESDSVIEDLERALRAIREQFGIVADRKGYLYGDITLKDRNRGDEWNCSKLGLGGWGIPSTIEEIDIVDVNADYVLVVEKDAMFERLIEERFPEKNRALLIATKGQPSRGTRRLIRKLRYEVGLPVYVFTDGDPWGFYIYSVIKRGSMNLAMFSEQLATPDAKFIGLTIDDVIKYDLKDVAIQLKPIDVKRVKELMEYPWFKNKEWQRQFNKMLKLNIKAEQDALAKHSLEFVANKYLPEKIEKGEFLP", "test": "radioisotope-based ATPase assay; also ATP-agarose pulldown", "type": "biochemical", "conditions": "labelled compound (gamma-32P) in the ATPase assay"}, "[2]": {"molecular_target": "the molecule itself", "test": "SEC; purified MBP-tagged MTOPVIB on a Superdex 200 Increase 10/300 GL column calibrated with size standards; without ATP; monomer to dimer"}, "[3]": {"molecular_target": "the molecule itself", "test": "SEC; Hi-Load Superdex 200 in D buffer without imidazole and glycerol, last step of the purification; monomer to dimer"}, "[4]": {"molecular_target": "T2, MTOPVIB (Arabidopsis thaliana, UniProt Q5Q0E6 1-473)", "T2 sequence": "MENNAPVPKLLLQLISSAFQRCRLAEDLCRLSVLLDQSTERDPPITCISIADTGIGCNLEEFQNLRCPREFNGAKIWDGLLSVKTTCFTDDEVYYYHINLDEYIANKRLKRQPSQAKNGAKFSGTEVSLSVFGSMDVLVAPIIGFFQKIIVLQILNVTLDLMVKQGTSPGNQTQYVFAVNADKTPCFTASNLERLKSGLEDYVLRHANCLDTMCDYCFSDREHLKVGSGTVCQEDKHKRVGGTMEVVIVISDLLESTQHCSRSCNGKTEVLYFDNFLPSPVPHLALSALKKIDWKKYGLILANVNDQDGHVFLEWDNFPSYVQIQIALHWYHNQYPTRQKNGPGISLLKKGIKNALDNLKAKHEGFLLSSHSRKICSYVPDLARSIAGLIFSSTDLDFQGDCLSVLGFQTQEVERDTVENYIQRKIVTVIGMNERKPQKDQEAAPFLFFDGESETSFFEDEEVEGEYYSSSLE", "test": "SPR; reaction buffer F, 0.05% Tween 20, 23 C; 1:1 global fit; EMSA: reaction buffer F (composition not in material) + 0.1 mg/ml BSA, 23 C, 30 min, 0.8% agarose-TBE at 4 C (6% PAGE for the competition); SPR: buffer F + 0.05% Tween 20, 23 C", "conditions": "protein: recombinant; tags: none (His6-MBP removed by PreScission); chain copies: 2; label: 5' biotin on Oligo 1; blunt"}},
  "data": [
    {"molecule": "Nc1ncnc2c1ncn2[C@@H]1O[C@H](COP(=O)(O)OP(=O)(O)OP(=O)(O)O)[C@@H](O)[C@H]1O", "note": "[ATP]", "values": [
      {"measurement": "radioisotope-based ATPase assay; also ATP-agarose pulldown", "setting": "[1]", "value": "unlike the Topo VI complex that hydrolyzed ATP to release"}
    ]},
    {"molecule": "A. thaliana His6-MBP-MTOPVIB (natural protein, UniProt Q5Q0E6 1-473, looked up, a PreScission protease site lies between the tag and the protein; Tag not cleaved in the size-exclusion analysis (MBP-tagged MTOPVIB) nor during the amylose step of the complex purification; also called MBP-tagged MTOPVIB; meiotic Topo VIB-like protein; source: High Five insect cells (baculovirus); purified alone (amylose, heparin, Mono Q, Superdex 200), and co-expressed with His6-SPO11-1 and …) MENNAPVPKLLLQLISSAFQRCRLAEDLCRLSVLLDQSTERDPPITCISIADTGIGCNLEEFQNLRCPREFNGAKIWDGLLSVKTTCFTDDEVYYYHINLDEYIANKRLKRQPSQAKNGAKFSGTEVSLSVFGSMDVLVAPIIGFFQKIIVLQILNVTLDLMVKQGTSPGNQTQYVFAVNADKTPCFTASNLERLKSGLEDYVLRHANCLDTMCDYCFSDREHLKVGSGTVCQEDKHKRVGGTMEVVIVISDLLESTQHCSRSCNGKTEVLYFDNFLPSPVPHLALSALKKIDWKKYGLILANVNDQDGHVFLEWDNFPSYVQIQIALHWYHNQYPTRQKNGPGISLLKKGIKNALDNLKAKHEGFLLSSHSRKICSYVPDLARSIAGLIFSSTDLDFQGDCLSVLGFQTQEVERDTVENYIQRKIVTVIGMNERKPQKDQEAAPFLFFDGESETSFFEDEEVEGEYYSSSLE", "values": [
      {"measurement": "stoichiometry N", "setting": "[2]", "value": 2}
    ]},
    {"molecule": "Nanoarchaeum equitans Topo VIB (expressed alone from pET21b) (natural protein, UniProt Q74N98 1-567, looked up, Topoisomerase VI subunit B, Nanoarchaeum equitans, codon-optimized cDNA in the Nde1 and Xho1 sites of pET21b; The tag is inferred from the vector and the Ni-NTA step; also called N. equitans Topo VIB; source: E. coli Rosetta (DE3) pLysS, purified (Ni-NTA, HiPrep SP XL, Hi-Load Superdex 200)) MRRTFREATIAEFFEKNKQFLGFDSPRKALVMTVKELVDNALDATEEARILPTIKVTLKEGKYMTVRVEDNGPGIPFNEVPNVFGKFLYGTKFHVLKQNRGQQGIGAAAITLYSQLTTGKPIRVWDKPIDSNKAYYYEIMIDTKRNEPEVLVKKEVKLNIKHGLIVEADIKGEYTKGKQSVDQYLKLTAVANPHAEIIYRTPKGEYIVFKRGTNELPPLPKEIKPHPHGIELGQLKKMVSEHKGDLMDFLIKNFSSVGEDKAKEILARYIFYKEGKEDFEKFFKRFRGRKIDIKSLTSEDLELLLKAMRETKLKMPSAKALIPIGEKNLQIGITKEYDVEYLAVKTRKPKVYSGGIPFLVEVAIGYGDFEKAEILRFANRTPLLYKAGECAIVKAIKDINWKRYGFEVENNLPKNALILVHIASVKVPYTSESKEAIADIPEVREEIKRALQEVARKVQIYIKKKEETKELAEKYLRFYAYGKEIERYLPKLIDKDVDSVVTKTILKRLEEELLERIKNNKTIVTHIENKDYETAKKLIKKMVMPLIKKKIIDESFIDRLIQLYNVS", "values": [
      {"measurement": "stoichiometry N", "setting": "[3]", "value": 2}
    ]},
    {"molecule": "80 bp dsDNA, biotinylated (dsDNA) DNA 1: TTATGTTCATTTTTTATATCCTTTACTTTATTTTCTCTGTTTATTCATTTACTTATTTTGTATTATCCTTATCTTATTTA DNA 2: TAAATAAGATAAGGATAATACAAAATAAGTAAATGAATAAACAGAGAAAATAAAGTAAAGGATATAAAAAATGAACATAA", "values": [
      {"measurement": "Kd", "setting": "[4]", "value": "~150", "unit": "nM"}
    ]}
  ]
}
